The supplement of paper PMC10899765

Tests used:
Conditions in all cases: 20 nM; 72 h
[1] = test system: MCF10A; test: 5+ nucleoli phenotype percent effect (relative to siNT 0% and siKIF11 100%); higher = more cells with five or more nucleoli
Procedure: (§1)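 After 72 h, cells were fixed and stained with Hoechst and anti-fibrillarin, and nucleoli per nucleus were counted with CellProfiler. Values are plate-adjusted percent effect for the one-nucleolus and 5+ nucleoli phenotypes, normalised to siNT (0%) and to the positive controls siNOL11 or siKIF11 (100%), as the mean of biological triplicates. Percent viability is the nuclei count relative to siNT.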

[2] = test system: MCF10A; test: percent viability (nuclei count relative to siNT); higher = more viable cells
Procedure: as §1

[3] = test system: MCF10A; test: one-nucleolus phenotype percent effect (relative to siNT 0% and siNOL11 100%); higher = more cells with one nucleolus (ribosome biogenesis inhibition)
Procedure: as §1

UGACCUCUCCGCUCCGCACAG [hsa-miR-6821-3p]
5+ nucleoli phenotype percent effect [1]: -22.7% | percent viability [2]: 38.9% | one-nucleolus phenotype percent effect [3]: 7.28%

AUGACCUAUGAAUUGACAGAC [hsa-miR-215]
5+ nucleoli phenotype percent effect [1]: -16.4% | percent viability [2]: 29.2% | one-nucleolus phenotype percent effect [3]: 45.7%

AAAACUGCAGUUACUUUUGC [hsa-miR-548av-3p]
5+ nucleoli phenotype percent effect [1]: 35.1% | percent viability [2]: 83.1% | one-nucleolus phenotype percent effect [3]: -20.6%

UGUGACUUUAAGGGAAAUGGCG [hsa-miR-3164]
5+ nucleoli phenotype percent effect [1]: 22% | percent viability [2]: 22.9% | one-nucleolus phenotype percent effect [3]: 19.5%

CACUGGCUCCUUUCUGGGUAGA [hsa-miR-892b]
5+ nucleoli phenotype percent effect [1]: -22.8% | percent viability [2]: 25.4% | one-nucleolus phenotype percent effect [3]: 27.6%

UGCACCAUGGUUGUCUGAGCAUG [hsa-miR-767-5p]
5+ nucleoli phenotype percent effect [1]: 8.28% | percent viability [2]: 65.4% | one-nucleolus phenotype percent effect [3]: -10.3%

CAGUGCAAUGUUAAAAGGGCAU [hsa-miR-130a-3p]
5+ nucleoli phenotype percent effect [1]: 49.2% | percent viability [2]: 120% | one-nucleolus phenotype percent effect [3]: -19.9%

AGACACAUUUGGAGAGGGACCC [hsa-miR-642b-3p]
5+ nucleoli phenotype percent effect [1]: -6.68% | percent viability [2]: 71.1% | one-nucleolus phenotype percent effect [3]: -3.17%

AAGUUGGCUGCAGUUAAGGUGG [hsa-miR-4715-5p]
5+ nucleoli phenotype percent effect [1]: -13.4% | percent viability [2]: 22.1% | one-nucleolus phenotype percent effect [3]: -2.6%

GAAUACUAAGUAAAAAAUCAGUA [hsa-miR-8084]
5+ nucleoli phenotype percent effect [1]: 66.7% | percent viability [2]: 215% | one-nucleolus phenotype percent effect [3]: -33.5%

GAAUGUUGCUCGGUGAACCCCU [hsa-miR-409-3p]
5+ nucleoli phenotype percent effect [1]: -31.1% | percent viability [2]: 35.9% | one-nucleolus phenotype percent effect [3]: 9.98%

AGACCUGGCCCAGACCUCAGC [hsa-miR-631]
5+ nucleoli phenotype percent effect [1]: -2.57% | percent viability [2]: 25.9% | one-nucleolus phenotype percent effect [3]: 24.7%

UGAGAUGACACUGUAGCU [hsa-miR-4770]
5+ nucleoli phenotype percent effect [1]: -3.17% | percent viability [2]: 33.4% | one-nucleolus phenotype percent effect [3]: 11.7%

UGUAAACAUCCUCGACUGGAAG [hsa-miR-30a-5p]
5+ nucleoli phenotype percent effect [1]: 9.35% | percent viability [2]: 47.2% | one-nucleolus phenotype percent effect [3]: -3.76%

CCAGUGGGGCUGCUGUUAUCUG [hsa-miR-194-3p]
5+ nucleoli phenotype percent effect [1]: 10.5% | percent viability [2]: 138% | one-nucleolus phenotype percent effect [3]: -11.8%

CAACCUGGAGGACUCCAUGCUG [hsa-miR-490-3p]
5+ nucleoli phenotype percent effect [1]: 55.8% | percent viability [2]: 41.3% | one-nucleolus phenotype percent effect [3]: -12.6%

CCUGAGAAAAGGGCCAA [hsa-miR-4251]
5+ nucleoli phenotype percent effect [1]: -4.33% | percent viability [2]: 31.3% | one-nucleolus phenotype percent effect [3]: 15.3%

CAAAAACUGCAUUACUUUUGC [hsa-miR-548j-3p]
5+ nucleoli phenotype percent effect [1]: 32.5% | percent viability [2]: 118% | one-nucleolus phenotype percent effect [3]: -29.2%

UGGAUGACAGUGGAGGCCU [hsa-miR-6744-5p]
5+ nucleoli phenotype percent effect [1]: -19.1% | percent viability [2]: 20.5% | one-nucleolus phenotype percent effect [3]: 37.8%

CAGGGUCAGCUGAGCAUG [hsa-miR-1178-5p]
5+ nucleoli phenotype percent effect [1]: 8.34% | percent viability [2]: 51.5% | one-nucleolus phenotype percent effect [3]: 9.85%

AUCGUGCAUCCCUUUAGAGUGU [hsa-miR-517b-3p]
5+ nucleoli phenotype percent effect [1]: -20.3% | percent viability [2]: 35.2% | one-nucleolus phenotype percent effect [3]: 14.6%

CGGCGCCCGUGUCUCCUCCAG [hsa-miR-6789-3p]
5+ nucleoli phenotype percent effect [1]: 32.6% | percent viability [2]: 59.9% | one-nucleolus phenotype percent effect [3]: -9.93%

UUAAUUUUUUGUUUCGGUCACU [hsa-miR-4775]
5+ nucleoli phenotype percent effect [1]: 21.1% | percent viability [2]: 88.3% | one-nucleolus phenotype percent effect [3]: -18.6%

AAGUGUGCAGGGCACUGGU [hsa-miR-648]
5+ nucleoli phenotype percent effect [1]: -33.3% | percent viability [2]: 20.9% | one-nucleolus phenotype percent effect [3]: 40.5%

CAGGGCCUCACUGUAUCGCCCA [hsa-miR-4512]
5+ nucleoli phenotype percent effect [1]: 0.0146% | percent viability [2]: 20% | one-nucleolus phenotype percent effect [3]: 18.5%

CACCGACUCUGUCUCCUGCAG [hsa-miR-6510-3p]
5+ nucleoli phenotype percent effect [1]: -12.7% | percent viability [2]: 69.9% | one-nucleolus phenotype percent effect [3]: 11.7%

CAAAAACUGCAGUUACUUUUGC [hsa-miR-548ah-3p]
5+ nucleoli phenotype percent effect [1]: 63.6% | percent viability [2]: 144% | one-nucleolus phenotype percent effect [3]: -24.8%

CACAGGCUUAGAAAAGACAGU [hsa-miR-4438]
5+ nucleoli phenotype percent effect [1]: 25.6% | percent viability [2]: 11.8% | one-nucleolus phenotype percent effect [3]: -2.67%

AGAGUUAACUCAAAAUGGACUA [hsa-miR-4424]
5+ nucleoli phenotype percent effect [1]: 6.94% | percent viability [2]: 51.7% | one-nucleolus phenotype percent effect [3]: -9.95%

CACACAGGAAAAGCGGGGCCCUG [hsa-miR-6768-5p]
5+ nucleoli phenotype percent effect [1]: 24.4% | percent viability [2]: 55.7% | one-nucleolus phenotype percent effect [3]: -20.7%

GUCCCUGAGUGUAUGUGGUG [hsa-miR-670]
5+ nucleoli phenotype percent effect [1]: 48% | percent viability [2]: 47.5% | one-nucleolus phenotype percent effect [3]: -27.4%

GGCCACUGAGUCAGCACCA [hsa-miR-4252]
5+ nucleoli phenotype percent effect [1]: 5.41% | percent viability [2]: 46.1% | one-nucleolus phenotype percent effect [3]: -3.69%

UUUCUCUCUCCACUUCCUCAG [hsa-miR-6833-3p]
5+ nucleoli phenotype percent effect [1]: 22.2% | percent viability [2]: 28.4% | one-nucleolus phenotype percent effect [3]: -1.79%

CGGGCCGGAGGUCAAGGGCGU [hsa-miR-6781-5p]
5+ nucleoli phenotype percent effect [1]: 54.4% | percent viability [2]: 46.3% | one-nucleolus phenotype percent effect [3]: -2.25%

AGAUUGUUUCUUUUGCCGUGCA [hsa-miR-4445-5p]
5+ nucleoli phenotype percent effect [1]: -21.9% | percent viability [2]: 19.2% | one-nucleolus phenotype percent effect [3]: 34.7%

CCUCCCUGCCCGCCUCUCUGCAG [hsa-miR-7113-3p]
5+ nucleoli phenotype percent effect [1]: 57.3% | percent viability [2]: 70.5% | one-nucleolus phenotype percent effect [3]: -20.6%

CUUCCCCCCAGUAAUCUUCAUC [hsa-miR-3679-3p]
5+ nucleoli phenotype percent effect [1]: -16.6% | percent viability [2]: 88.6% | one-nucleolus phenotype percent effect [3]: 4.01%

UCUCCCUUCCUGCCCUGGCUAG [hsa-miR-4685-3p]
5+ nucleoli phenotype percent effect [1]: 29.5% | percent viability [2]: 98.4% | one-nucleolus phenotype percent effect [3]: -25.3%

AAAGUGCUUCCUUUUUGAGGG [hsa-miR-520e]
5+ nucleoli phenotype percent effect [1]: 57.7% | percent viability [2]: 84.4% | one-nucleolus phenotype percent effect [3]: -14.9%

AUGUCCCACCCCCACUCCUGU [hsa-miR-4433b-5p]
5+ nucleoli phenotype percent effect [1]: -37.3% | percent viability [2]: 28.3% | one-nucleolus phenotype percent effect [3]: 55.5%

CCAGAGAUGGUUGCCUUCCUAU [hsa-miR-4756-3p]
5+ nucleoli phenotype percent effect [1]: 4.75% | percent viability [2]: 56.8% | one-nucleolus phenotype percent effect [3]: -3.67%

CAUCCCUUGCAUGGUGGAGGG [hsa-miR-188-5p]
5+ nucleoli phenotype percent effect [1]: 45.6% | percent viability [2]: 98.4% | one-nucleolus phenotype percent effect [3]: -13.1%

UGAGGAGAUGCUGGGACUGA [hsa-miR-4784]
5+ nucleoli phenotype percent effect [1]: 22.8% | percent viability [2]: 56.7% | one-nucleolus phenotype percent effect [3]: -9%

UUGGUGAGGACCCCAAGCUCGG [hsa-miR-7855-5p]
5+ nucleoli phenotype percent effect [1]: -27.6% | percent viability [2]: 7.91% | one-nucleolus phenotype percent effect [3]: 73.9%

ACCCUUUUUCUCUUUCCCAG [hsa-miR-6832-3p]
5+ nucleoli phenotype percent effect [1]: 38.2% | percent viability [2]: 76.6% | one-nucleolus phenotype percent effect [3]: -12.4%

CCAUGAAGCAGUGGGUAGGAGGAC [hsa-miR-8060]
5+ nucleoli phenotype percent effect [1]: 14.9% | percent viability [2]: 43.2% | one-nucleolus phenotype percent effect [3]: 6.65%

AAAAGUAAUUGCAGUUUUUGC [hsa-miR-548ar-5p]
5+ nucleoli phenotype percent effect [1]: 22.8% | percent viability [2]: 134% | one-nucleolus phenotype percent effect [3]: -24.8%

ACUCUUUCCCUGUUGCACUAC [hsa-miR-130b-5p]
5+ nucleoli phenotype percent effect [1]: 16.1% | percent viability [2]: 54.3% | one-nucleolus phenotype percent effect [3]: -13.5%

AAGGAACCAGAAAAUGAGAAGU [hsa-miR-3914]
5+ nucleoli phenotype percent effect [1]: 57.2% | percent viability [2]: 111% | one-nucleolus phenotype percent effect [3]: -40.6%

CUCUAGAGGGAAGCACUUUCUG [hsa-miR-518d-5p]
5+ nucleoli phenotype percent effect [1]: 5.06% | percent viability [2]: 57.8% | one-nucleolus phenotype percent effect [3]: -4.59%

AAAGACCGUGACUACUUUUGCA [hsa-miR-548ao-3p]
5+ nucleoli phenotype percent effect [1]: -18.1% | percent viability [2]: 80.6% | one-nucleolus phenotype percent effect [3]: 18.2%

CGGUGGACUGGAGUGGGUGG [hsa-miR-8071]
5+ nucleoli phenotype percent effect [1]: -15.7% | percent viability [2]: 9.26% | one-nucleolus phenotype percent effect [3]: 22.4%

UCUUCACCUGCCUCUGCCUGCA [hsa-miR-6754-3p]
5+ nucleoli phenotype percent effect [1]: 15.2% | percent viability [2]: 71.5% | one-nucleolus phenotype percent effect [3]: -24.7%

GCUGGGCAGGGCUUCUGAGCUCCUU [hsa-miR-612]
5+ nucleoli phenotype percent effect [1]: -7.01% | percent viability [2]: 77.6% | one-nucleolus phenotype percent effect [3]: 14.9%

CAAGCUCGUGUCUGUGGGUCCG [hsa-miR-99b-3p]
5+ nucleoli phenotype percent effect [1]: -2.82% | percent viability [2]: 84.3% | one-nucleolus phenotype percent effect [3]: 8.24%

UUGUGGCUGGUCAUGAGGCUAA [hsa-miR-4474-3p]
5+ nucleoli phenotype percent effect [1]: 22.3% | percent viability [2]: 75.4% | one-nucleolus phenotype percent effect [3]: 3.27%

GGGGUGGUCUGUUGUUG [hsa-miR-4483]
5+ nucleoli phenotype percent effect [1]: 44.6% | percent viability [2]: 5.44% | one-nucleolus phenotype percent effect [3]: -25.2%

UGAGGUAGUAGGUUGUGUGGUU [hsa-let-7b-5p]
5+ nucleoli phenotype percent effect [1]: 33.9% | percent viability [2]: 22.8% | one-nucleolus phenotype percent effect [3]: -9.82%

AAAUCUCUGCAGGCAAAUGUGA [hsa-miR-216b]
5+ nucleoli phenotype percent effect [1]: 44.2% | percent viability [2]: 97.3% | one-nucleolus phenotype percent effect [3]: -16.2%
